Results taken from IntAct's records for PubMed 15644415.

B1: 1-phosphatidylinositol 4,5-bisphosphate phosphodiesterase gamma-2 (Homo sapiens), P16885 (parent)
chain: MSTTVNVDSLAEYEKSQIKRALELGTVMTVFSFRKSTPERRTVQVIMETRQVAWSKTADKIEGFLDIMEIKEIRPGKNSKDFERAKAVRQKEDCCFTILYGTQFVLSTLSLAADSKEDAVNWLSGLKILHQEAMNASTPTIIESWLRKQIYSVDQTRRNSISLRELKTILPLINFKVSSAKFLKDKFVEIGAHKDELSFEQFHLFYKKLMFEQQKSILDEFKKDSSVFILGNTDRPDASAVYLHDFQRFLIHEQQEHWAQDLNKVRERMTKFIDDTMRETAEPFLFVDEFLTYLFSRENSIWDEKYDAVDMQDMNNPLSHYWISSSHNTYLTGDQLRSESSPEAYIRCLRMGCRCIELDCWDGPDGKPVIYHGWTRTTKIKFDDVVQAIKDHAFVTSSFPVILSIEEHCSVEQQRHMAKAFKEVFGDLLLTKPTEASADQLPSPSQLREKIIIKHKKLGPRGDVDVNMEDKKDEHKQQGELYMWDSIDQKWTRHYCAIADAKLSFSDDIEQTMEEEVPQDIPPTELHFGEKWFHKKVEKRTSAEKLLQEYCMETGGKDGTFLVRESETFPNDYTLSFWRSGRVQHCRIRSTMEGGTLKYYLTDNLTFSSIYALIQHYRETHLRCAEFELRLTDPVPNPNPHESKPWYYDSLSRGEAEDMLMRIPRDGAFLIRKREGSDSYAITFRARGKVKHCRINRDGRHFVLGTSAYFESLVELVSYYEKHSLYRKMRLRYPVTPELLERYNMERDINSLYDVSRMYVDPSEINPSMPQRTVKALYDYKAKRSDELSFCRGALIHNVSKEPGGWWKGDYGTRIQQYFPSNYVEDISTADFEELEKQIIEDNPLGSLCRGILDLNTYNVVKAPQGKNQKSFVFILEPKQQGDPPVEFATDRVEELFEWFQSIREITWKIDTKENNMKYWEKNQSIAIELSDLVVYCKPTSKTKDNLENPDFREIRSFVETKADSIIRQKPVDLLKYNQKGLTRVYPKGQRVDSSNYDPFRLWLCGSQMVALNFQTADKYMQMNHALFSLNGRTGYVLQPESMRTEKYDPMPPESQRKILMTLTVKVLGARHLPKLGRSIACPFVEVEICGAEYDNNKFKTTVVNDNGLSPIWAPTQEKVTFEIYDPNLAFLRFVVYEEDMFSDPNFLAHATYPIKAVKSGFRSVPLKNGYSEDIELASLLVFCEMRPVLESEEELYSSCRQLRRRQEELNNQLFLYDTHQNLRNANRDALVKEFSVNENQLQLYQEKCNKRLREKRVSNSKFYS
partner: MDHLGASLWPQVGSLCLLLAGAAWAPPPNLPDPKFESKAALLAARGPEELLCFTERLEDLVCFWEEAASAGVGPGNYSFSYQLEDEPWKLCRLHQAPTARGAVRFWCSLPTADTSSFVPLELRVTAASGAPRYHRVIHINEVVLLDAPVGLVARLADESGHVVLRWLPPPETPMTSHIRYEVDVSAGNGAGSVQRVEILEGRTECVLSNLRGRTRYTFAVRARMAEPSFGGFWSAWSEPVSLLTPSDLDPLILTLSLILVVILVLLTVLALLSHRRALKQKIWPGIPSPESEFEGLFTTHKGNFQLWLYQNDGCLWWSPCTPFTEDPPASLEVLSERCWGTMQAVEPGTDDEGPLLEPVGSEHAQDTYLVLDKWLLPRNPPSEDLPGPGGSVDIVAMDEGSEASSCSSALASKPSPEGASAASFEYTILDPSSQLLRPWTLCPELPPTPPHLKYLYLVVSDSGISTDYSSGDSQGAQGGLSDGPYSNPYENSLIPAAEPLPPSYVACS
B2: Erythropoietin receptor (Homo sapiens), P19235 (parent)
chain: B1 partner
partner: B1 chain
B3: Erythropoietin receptor (Homo sapiens), P19235 (parent)
chain: B1 partner
partner: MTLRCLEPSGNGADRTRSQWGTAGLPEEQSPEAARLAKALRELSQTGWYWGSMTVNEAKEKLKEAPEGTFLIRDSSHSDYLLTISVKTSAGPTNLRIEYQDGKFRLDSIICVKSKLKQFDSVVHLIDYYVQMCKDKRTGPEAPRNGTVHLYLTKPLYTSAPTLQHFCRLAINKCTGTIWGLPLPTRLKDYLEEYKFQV
B4: Erythropoietin receptor (Homo sapiens), P19235 (parent)
chain: B1 partner
partner: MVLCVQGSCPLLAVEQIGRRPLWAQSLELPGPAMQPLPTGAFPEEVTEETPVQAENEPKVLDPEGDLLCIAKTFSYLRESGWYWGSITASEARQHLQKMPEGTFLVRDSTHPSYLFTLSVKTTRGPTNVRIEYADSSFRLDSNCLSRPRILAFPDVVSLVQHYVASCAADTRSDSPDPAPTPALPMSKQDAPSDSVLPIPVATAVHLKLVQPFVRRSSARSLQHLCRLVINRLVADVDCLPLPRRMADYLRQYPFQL

Variants of: B1
Conditions: with epor_human EPOR

effect of a mutation on the interaction	Variant
decreasing interaction	K367F

Variants of: B2
Conditions: with plcg2_human PLCG2, P16885

effect of a mutation on the interaction	Variant
decreasing interaction	MDHLGASLWPQVGSLCLLLAGAAWAPPPNLPDPKFESKAALLAARGPEELLCFTERLEDLVCFWEEAASAGVGPGNYSFSYQLEDEPWKLCRLHQAPTARGAVRFWCSLPTADTSSFVPLELRVTAASGAPRYHRVIHINEVVLLDAPVGLVARLADESGHVVLRWLPPPETPMTSHIRYEVDVSAGNGAGSVQRVEILEGRTECVLSNLRGRTRYTFAVRARMAEPSFGGFWSAWSEPVSLLTPSDLDPLILTLSLILVVILVLLTVLALLSHRRALKQKIWPGIPSPESEFEGLFTTHKGNFQLWLYQNDGCLWWSPCTPFTEDPPASLEVLSERCWGTMQAVEPGTDDEGPLLEPVGSEHAQDTYLVLDKWLLPRNPPSEDLPGPGGSVDIVAMDEGSEASSCSSALASKPSPEGASAASFEYTILDPSSQLLRPWTLCPELPPTPPHLKYLYLVVSDSGISTDYSSGDSQGAQGGLSDGPYSNPYENSLIPAAEPLPPSFVACS [Y504F]
decreasing interaction	MDHLGASLWPQVGSLCLLLAGAAWAPPPNLPDPKFESKAALLAARGPEELLCFTERLEDLVCFWEEAASAGVGPGNYSFSYQLEDEPWKLCRLHQAPTARGAVRFWCSLPTADTSSFVPLELRVTAASGAPRYHRVIHINEVVLLDAPVGLVARLADESGHVVLRWLPPPETPMTSHIRYEVDVSAGNGAGSVQRVEILEGRTECVLSNLRGRTRYTFAVRARMAEPSFGGFWSAWSEPVSLLTPSDLDPLILTLSLILVVILVLLTVLALLSHRRALKQKIWPGIPSPESEFEGLFTTHKGNFQLWLYQNDGCLWWSPCTPFTEDPPASLEVLSERCWGTMQAVEPGTDDEGPLLEPVGSEHAQDTYLVLDKWLLPRNPPSEDLPGPGGSVDIVAMDEGSEASSCSSALASKPSPEGASAASFEYTILDPSSQLLRPWTLCPELPPTPPHLKYLFLVVSDSGISTDYSSGDSQGAQGGLSDGPYSNPYENSLIPAAEPLPPSYVACS [Y456F]

Variants of: B3
Conditions: with socs2_mouse Socs2, O35717

effect of a mutation on the interaction	Variant
decreasing interaction	MDHLGASLWPQVGSLCLLLAGAAWAPPPNLPDPKFESKAALLAARGPEELLCFTERLEDLVCFWEEAASAGVGPGNYSFSYQLEDEPWKLCRLHQAPTARGAVRFWCSLPTADTSSFVPLELRVTAASGAPRYHRVIHINEVVLLDAPVGLVARLADESGHVVLRWLPPPETPMTSHIRYEVDVSAGNGAGSVQRVEILEGRTECVLSNLRGRTRYTFAVRARMAEPSFGGFWSAWSEPVSLLTPSDLDPLILTLSLILVVILVLLTVLALLSHRRALKQKIWPGIPSPESEFEGLFTTHKGNFQLWLYQNDGCLWWSPCTPFTEDPPASLEVLSERCWGTMQAVEPGTDDEGPLLEPVGSEHAQDTYLVLDKWLLPRNPPSEDLPGPGGSVDIVAMDEGSEASSCSSALASKPSPEGASAASFEFTILDPSSQLLRPWTLCPELPPTPPHLKYLYLVVSDSGISTDYSSGDSQGAQGGLSDGPYSNPYENSLIPAAEPLPPSYVACS [Y426F]

Variants of: B4
Conditions: with cish_mouse Cish

effect of a mutation on the interaction	Variant
decreasing interaction	MDHLGASLWPQVGSLCLLLAGAAWAPPPNLPDPKFESKAALLAARGPEELLCFTERLEDLVCFWEEAASAGVGPGNYSFSYQLEDEPWKLCRLHQAPTARGAVRFWCSLPTADTSSFVPLELRVTAASGAPRYHRVIHINEVVLLDAPVGLVARLADESGHVVLRWLPPPETPMTSHIRYEVDVSAGNGAGSVQRVEILEGRTECVLSNLRGRTRYTFAVRARMAEPSFGGFWSAWSEPVSLLTPSDLDPLILTLSLILVVILVLLTVLALLSHRRALKQKIWPGIPSPESEFEGLFTTHKGNFQLWLYQNDGCLWWSPCTPFTEDPPASLEVLSERCWGTMQAVEPGTDDEGPLLEPVGSEHAQDTYLVLDKWLLPRNPPSEDLPGPGGSVDIVAMDEGSEASSCSSALASKPSPEGASAASFEFTILDPSSQLLRPWTLCPELPPTPPHLKYLYLVVSDSGISTDYSSGDSQGAQGGLSDGPYSNPYENSLIPAAEPLPPSYVACS [Y426F]

Variants of: B4
Conditions: with cish_mouse Cish
Remark: another data set of the same source

effect of a mutation on the interaction	Variant
decreasing interaction	MDHLGASLWPQVGSLCLLLAGAAWAPPPNLPDPKFESKAALLAARGPEELLCFTERLEDLVCFWEEAASAGVGPGNYSFSYQLEDEPWKLCRLHQAPTARGAVRFWCSLPTADTSSFVPLELRVTAASGAPRYHRVIHINEVVLLDAPVGLVARLADESGHVVLRWLPPPETPMTSHIRYEVDVSAGNGAGSVQRVEILEGRTECVLSNLRGRTRYTFAVRARMAEPSFGGFWSAWSEPVSLLTPSDLDPLILTLSLILVVILVLLTVLALLSHRRALKQKIWPGIPSPESEFEGLFTTHKGNFQLWLYQNDGCLWWSPCTPFTEDPPASLEVLSERCWGTMQAVEPGTDDEGPLLEPVGSEHAQDTYLVLDKWLLPRNPPSEDLPGPGGSVDIVAMDEGSEASSCSSALASKPSPEGASAASFEYTILDPSSQLLRPWTLCPELPPTPPHLKFLYLVVSDSGISTDYSSGDSQGAQGGLSDGPYSNPYENSLIPAAEPLPPSYVACS [Y454F]
